Measurements reported in patent US20130109581A1, “POSITIVELY CHARGED SPECIES AS BINDING REAGENTS IN THE SEPARATION OF PROTEIN AGGREGATES FROM MONOMERS” (priority 2009, published 2013).
Read-outs that look alike come from different tables or passages of the source.

B1: Ac-FKFKKK-Link (Ac-FKFKKK-Ahx-Ahx-Cys-NH2) (peptide)
peptide: FKFKKK
HELM: PEPTIDE1{[ac].F.K.F.K.K.K.[O=C(CCCCCN[*:1])[*:2]].[O=C(CCCCCN[*:1])[*:2]].C.[am]}$$$$V2.0
SMILES: CC(=O)N[C@@H](Cc1ccccc1)C(=O)N[C@@H](CCCCN)C(=O)N[C@@H](Cc1ccccc1)C(=O)N[C@@H](CCCCN)C(=O)N[C@@H](CCCCN)C(=O)N[C@@H](CCCCN)C(=O)NCCCCCC(=O)NCCCCCC(=O)N[C@@H](CS)C(N)=O

Experiments:
[1] = molecular target: Abeta 1-42 globulomer, P05067; assay: 42 (globulomer) RLU over 40 (Abeta 1-40 monomer) RLU
[2] = molecular target: Abeta 1-42 globulomer, P05067; assay: MPA bead capture, CSF + 1 ng/mL globulomer, Abeta immunoassay
[3] = molecular target: Abeta (1-42) aggregates from Alzheimer's Disease Brain Homogenate (human), P05067; assay: MPA, serial dilutions in CSF, LoD = 2x over background
Abeta42 fibrils, P05067 = assay: as above
[4] = molecular target: ADDL (Abeta42 aggregate), P05067; assay: as above
[5] = molecular target: ASPD (Abeta42 aggregate), P05067; assay: as above
[6] = molecular target: Abeta 1-40 monomer, P05067; assay: MPA bead capture, Abeta 1-40 read-out of the CSF sample (noise)
Abeta 1-40 monomer = Abeta 1-40 monomer (UniProt P05067); assay: as above
[7] = remark: other sources report otherwise

Row | Binder | 42:40 ratio [1] | average RLU (42) [2] [RLU] | also measured
1 | KKKKKK (modifications not checked) | – | – | 42:40 ratio [1, 7]: 3.3; average RLU (42) [2, 7]: 658 RLU
2 | KKKFKF (modifications not checked) [link-KKKFKF] | 5.9 | 1650 | –
3 | FKFKKK (modifications not checked) [link-FKFKKK] | 4.1 | 808 | –
4 | KKKFKF (modifications not checked) [KKKFKF-link] | 3.9 | 748 | –
5 | B1 | 5.7 | 2000 | LoD [3]: < 10 pg/mL; LoD (Abeta42 fibrils, P05067): 100 pg/mL; LoD [4]: 300 pg/mL; LoD [5]: 300 pg/mL
6 | IRYVTHQYILWP (modifications not checked) […] | 3.2 | 3240 | average RLU (40) [6]: 1010 RLU; average RLU (40) (Abeta 1-40 monomer): 348 RLU
7 | AKKKKA (modifications not checked) | 2.1 | 322 | –
8 | ANFFAHSS (modifications not checked) | 1.8 | 994 | –
9 | FKFSLFSG (modifications not checked) | 1.5 | 3080 | average RLU (40) [6]: 2010 RLU
10 | DFKLNFKF (modifications not checked) | 2 | 516 | –
11 | FKFNLFSG (modifications not checked) | 2.4 | 3230 | average RLU (40) [6]: 1330 RLU
12 | AAAKAA (modifications not checked) | 0.8 | 114 | –
13 | AAKKAA (modifications not checked) | 1.1 | 160 | –
14 | AAKKKA (modifications not checked) | 1.6 | 247 | –
15 | AKKKKK (modifications not checked) | 2.5 | 442 | –
